The record followed here is patent publication US20040058857A1, “Method of treating cancer” (priority 2003, published 2004).

In general, AUC refers to concentration integrated over time. Lower therefore signals less exposure.

Numbered stars: 1 amine (or outer) side, 2 acyl side, 3 side chain; on linkers, the order of the positions; unused ones are H or OH. Square brackets hold non-standard residues; d marks the D form. Peptide text beside a SMILES is read from it. * marks the point of attachment. X1 = COc1cccc2c1C(=O)c1c(O)c3c(c(O)c1C2=O)C[C@@](O)(C(=O)CO)C[C@@H]3OC1CC(N*)C(O)C(C)O1; Glutaryl = O=C(CCCC(=O)[*:2])[*:1]; Hyp = O=C(O)[C@@H]1C[C@@H](O)CN1; Chg = N[C@H](C(=O)O)C1CCCCC1

A short description of data set [1]: Clinical trial of Compound B: tolerability and dose limiting toxicity.
Procedure: (§1) Compound B (as described in Example 2) is a peptide conjugate of doxorubicin (Dox) that is cleaved by PSA at prostate tumor cells to leucine-dox (Leu-dox) and Dox. Thirty-three patients with advanced hormone refractory prostate cancer were treated with Compound B. Nineteen patients were initially treated at escalating dose levels of 20 (n=1), 40 (n=3), 80 (n=4), 160 (n=2), 225 (n=6), and 315 mg/m^2 (n=2) in the phase I portion of the trial. An additional 14 patients were treated with 225 mg/m^2 with prednisone.
The conditions of data set [2]: human, in vivo.
Procedure: as §1
The next data set in a line: clinical. As to conditions: male, human, in vivo, 225 mg/m2.
For data set [3] the following is noted: human, in vivo. The source holds these as a separate data set.
Procedure: as §1

As to `COc1cccc2c1C(=O)c1c(O)c3c(c(O)c1C2=O)C[C@@](O)(C(=O)CO)C[C@@H]3OC1CC(NC(=O)[C@H](CC(C)C)NC(=O)[C@H](CO)NC(=O)[C@H](CCC(N)=O)NC(=O)[C@@H](NC(=O)[C@H](CO)NC(=O)[C@H](C)NC(=O)[C@@H]2C[C@@H](O)CN2C(=O)CCCC(=O)O)C2CCCCC2)C(O)C(C)O1` (stereo partly drawn) [Compound B, [N-Glutaryl-(4-trans-L-Hyp)]-Ala-Ser-Chg-Gln-Ser-Leu-Dox] (Glutaryl-[Hyp]AS[Chg]QSL-X1; N-terminus and C-terminus assumed), the “patients with dose limiting neutropenia” value in data set [1] (315 mg/m^2 dose level) is reported as 2 patients. The tolerability entry in data set [1] (33 patients with advanced hormone refractory prostate cancer) is “generally well tolerated”. Further, the “recommended phase II dose” value in data set [1] (phase I dose escalation 20-315 mg/m^2) turned out to be 225 mg/m^2. In data set [2], the “patients experiencing grade 3 fatigue” value is “two”. For the same molecule, the AUC in “clinical” worked out at 6 µM·h. Besides, in data set [3], the “metabolism in PK studies” value is “metabolized to Leu-dox and Dox”.

For `COc1cccc2c1C(=O)c1c(O)c3c(c(O)c1C2=O)C[C@@](O)(C(=O)CO)C[C@@H]3O[C@H]1C[C@H](NC(=O)[C@@H](N)CC(C)C)[C@H](O)[C@H](C)O1` [Leu-Dox, leucine-dox], the “mean AUC” value in data set [3] (225 mg/m2) was 4 µM·h.
